To fix the notation:
B1: R50 (antibody, V domains shown)
VH: QVQLQESGPGLVKPSETLSLTCAVSGDSISSYWWNWIRQPPGKGLEWIGEIYGYSGSTNYNASLKSRVTISKDASKKQLSLKLSSVTAADTAVYYCARDPLNQDAFDFWGLGLRVTVSS
VL: QSALTQPPSVSGSPGQSVTISCTGTSSDIGGYTYVSWYQQHPGKAPKLMIYDVSRRPSGVSDRFSGSKSGNTASLTISGLQAEDEADYYCSSYAGRNALLFGGGTRLTVL
B2: R53 (antibody, V domains shown)
VH: B1 VH with D27A, N59Y, N61S, A62P, K77N, L79F, V86A, A97V, L111Q
VL: B1 VL with G31S, T33D, I50M, R55K, S61F, E83D, D87A, Y89F, N97R, A98I
B3: R83 (antibody, V domains shown)
VH: B1 VH with D27A, S31D, N59Y, A62P, K82R, S84T, V93I
VL: B1 VL with V35I, H41Y, R55K, I77V, A94G, N97K, A98T
B4: R63 (antibody, V domains shown)
VH: QVQLQESGPGLVKASETLSLTCAVSGASISSYWWNWIRLSPGKGLEWIGEIYGYSGSTSYNSSLKSRVSISRDASKNQFSLKLSSVTAADTAVYYCARDPLNHDAFDFWGRGFRVTVSS
VL: B1 VL with T23A, S54N, R55E, R96S, N97K, A98T, L99V, L100S, T108S
B5: R64 (antibody, V domains shown)
VH: B1 VH with D27A, I29M, S31D, T58S, N59Y, A62P, T69S
VL: QSALTQPPSVSGSPGLSVTISCTGSGSDIGGYDYVSWYQQHPGKAPKLMIYGVNKRPSGVSDRFSGSKSGNTASLSISGLQAEDEADYYCSSYAGSHTLLFGGGSRLTVL
B6: R18 (antibody, V domains shown)
VH: B4 VH with N61K, S84T, F113L
VL: B1 VL with T23A, S54N, R55E, K68I, R96S, N97K, A98T, L99V, T108S
B7: R55 (antibody, V domains shown)
VH: B1 VH with A62P
VL: B1 VL
B8: R45 (antibody, V domains shown)
VH: EVQLVESGGGLAKPGGSLRLSCAASGFTFGDHWMSWVRQAPGNGLQWISAIDRAGGSTFYADSVKGRFTISRENAKNTLYLQIDSLRPEDTAVYFCARDQGRTVGYLDYWGQGVLVTVSS
VL: QSALTQPRSVSGSPGQSVTISCTGTSSDIGSYTYVSWYRQHPGTAPKLIIYDVDERPSGVSYRFSGSKSGNTASLTISGLQAEDEADYYCSSYAGRNTWVFGGGTRLTVL
B9: R80 (antibody, V domains shown)
VH: EVQLVESGGGLAKPGGSLRLSCAASGFTFNDYWLFWVRQAPGRGLEWISTINRPGSSTFYADSVKGRFTISRENANNALYLQMDSLRPEDTAVYYCARDQGRTVGYLDYWGQGVLVTVSS
VL: B8 VL with T33S, R39Q, V53D, D54S, Y62D, R96S
B10: R79 (antibody, V domains shown)
VH: B9 VH
VL: B8 VL with T33S, R39Q, V53D, D54S, Y62D, R96S
B11: R13 (antibody, V domains shown)
VH: EVQLVESGAGLVQPGGSLRLSCAASGFTFSNSWMTWVRQAPGKGLEWLARIKRKADGETADYAASVKGRFTISRDDSKNTLYLQMNSLKTEDTAVYYCTTYNWNFNFDFWGQGVLVTVSS
VL: DIQMTQSPSSLSASVGDRVTITCRASQDISPYLNWYQQKPGKAPKLLIYYGNRLESGVPSRFSGSGSGTDLTLTISSLQPEDFATYYCQQYYRLPLTFGGGTKVETK
B12: R39 (antibody, V domains shown)
VH: B11 VH with A24G, S32T, L48V, F109Y
VL: B11 VL with T106I
B13: R24 (antibody, V domains shown)
VH: B11 VH with A24G, S32T, L48V, N79S, F109Y
VL: B11 VL with T106S
B14: R29 (antibody, V domains shown)
VH: B11 VH with A23I, K43R, L48I, F109Y
VL: B11 VL with T106I
B15: R15 (antibody, V domains shown)
VH: B11 VH with Q13R, S32T, K43R, N79H, Y82F, F109N
VL: B11 VL with D28A, I29F, P31S, G51A, G66E, D70E, L71F, T106I
B16: R25 (antibody, V domains shown)
VH: B11 VH with L48V, A49G, F109H
VL: B11 VL with T106I

Where a chain is given by its changes, count along the chain named.

The first experiment has as its target T1, Marburg virus Musoke GP on rVSV pseudotype (VSV-MARV Musoke GP) (Marburg virus, Musoke strain, UniProt P35253 19-681).
T1 sequence: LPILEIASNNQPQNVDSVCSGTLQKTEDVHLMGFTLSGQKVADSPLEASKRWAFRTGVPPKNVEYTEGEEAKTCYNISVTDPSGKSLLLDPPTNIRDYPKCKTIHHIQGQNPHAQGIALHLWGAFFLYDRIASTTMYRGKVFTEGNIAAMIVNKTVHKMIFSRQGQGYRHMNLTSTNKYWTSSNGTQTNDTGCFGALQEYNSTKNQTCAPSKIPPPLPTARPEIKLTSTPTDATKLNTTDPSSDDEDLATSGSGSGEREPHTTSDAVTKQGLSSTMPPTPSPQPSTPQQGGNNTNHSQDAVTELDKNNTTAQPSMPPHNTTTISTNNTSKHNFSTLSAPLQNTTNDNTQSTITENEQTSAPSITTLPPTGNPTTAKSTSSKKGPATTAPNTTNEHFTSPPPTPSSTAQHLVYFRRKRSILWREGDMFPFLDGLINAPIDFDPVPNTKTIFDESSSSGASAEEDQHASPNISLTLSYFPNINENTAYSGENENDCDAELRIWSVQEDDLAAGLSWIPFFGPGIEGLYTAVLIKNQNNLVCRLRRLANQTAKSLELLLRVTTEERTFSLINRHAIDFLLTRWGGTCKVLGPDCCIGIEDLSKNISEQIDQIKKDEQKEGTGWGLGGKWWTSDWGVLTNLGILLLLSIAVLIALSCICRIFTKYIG
Description: cell-based or functional assay.
Turning to B1, the NT50 came out at 0.06 µg/mL.

On to B2, for which the NT50 stood at 0.02 µg/mL.

In turn, B3 yielded an NT50 of 0.05 µg/mL.

Molecule B4 showed an NT50 of 0.05 µg/mL.

As to B5, the NT50 was determined as 0.03 µg/mL.

Consider B6, for which the NT50 was found to be 0.09 µg/mL.

B7 gave an NT50 of 0.07 µg/mL.

As for B8, the NT50 stood at 0.1 µg/mL.

In turn, B9 yielded an NT50 of 0.21 µg/mL.

B10 yielded an NT50 of 0.17 µg/mL.

For the molecule B11, the NT50 stood at 0.03 µg/mL.

For the molecule B12, the NT50 amounted to 0.04 µg/mL.

For the molecule B13, the NT50 worked out at 0.03 µg/mL.

B14 registered an NT50 of 0.02 µg/mL.

B15 displayed an NT50 of 0.03 µg/mL.

B16 yielded an NT50 of 0.01 µg/mL.

The target of the next experiment is T2, Marburg virus Angola GP on rVSV pseudotype (Marburg virus, Angola strain, UniProt Q1PD50 19-681).
T2 sequence: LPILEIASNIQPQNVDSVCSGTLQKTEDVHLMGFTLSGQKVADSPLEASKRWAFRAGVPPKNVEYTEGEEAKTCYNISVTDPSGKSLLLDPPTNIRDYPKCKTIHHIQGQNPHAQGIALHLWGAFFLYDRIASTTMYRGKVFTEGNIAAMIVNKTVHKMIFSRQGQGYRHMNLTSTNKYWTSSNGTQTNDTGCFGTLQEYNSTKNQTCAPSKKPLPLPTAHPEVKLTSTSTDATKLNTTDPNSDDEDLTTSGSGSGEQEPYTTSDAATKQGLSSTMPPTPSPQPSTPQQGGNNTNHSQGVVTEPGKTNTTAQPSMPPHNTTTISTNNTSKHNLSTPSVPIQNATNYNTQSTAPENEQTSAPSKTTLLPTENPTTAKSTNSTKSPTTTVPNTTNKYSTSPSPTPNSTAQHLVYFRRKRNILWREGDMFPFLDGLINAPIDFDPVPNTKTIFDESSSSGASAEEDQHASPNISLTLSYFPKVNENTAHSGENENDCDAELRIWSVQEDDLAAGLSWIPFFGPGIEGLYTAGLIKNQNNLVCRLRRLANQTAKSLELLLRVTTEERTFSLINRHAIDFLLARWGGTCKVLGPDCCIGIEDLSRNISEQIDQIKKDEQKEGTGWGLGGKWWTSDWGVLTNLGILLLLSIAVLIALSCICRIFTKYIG
Description: cell-based or functional assay.
In turn, B1 came in with an NT50 of 0.05 µg/mL.

In turn, B2 registered an NT50 of 0.02 µg/mL.

As for B3, the NT50 worked out at 0.03 µg/mL.

B4 showed an NT50 of 0.04 µg/mL.

B5 registered an NT50 of 0.02 µg/mL.

In turn, B6 had an NT50 of 0.04 µg/mL.

Molecule B7 registered an NT50 of 0.07 µg/mL.

B8 had an NT50 of 0.1 µg/mL.

B9 displayed an NT50 of 0.26 µg/mL.

B10: the NT50 came out at 0.21 µg/mL.

B11 registered an NT50 of 0.03 µg/mL.

As for B12, the NT50 was 0.03 µg/mL.

The molecule B13 returned an NT50 of 0.04 µg/mL.

The molecule B14 registered an NT50 of 0.02 µg/mL.

On to B15, for which the NT50 came out at 0.04 µg/mL.

For B16, the NT50 is 0.03 µg/mL.

In another experiment the target is T3, RAVV GP on rVSV pseudotype (VSV-MARV RAVV GP) (Ravn virus, UniProt Q1PDC7 19-681).
T3 sequence: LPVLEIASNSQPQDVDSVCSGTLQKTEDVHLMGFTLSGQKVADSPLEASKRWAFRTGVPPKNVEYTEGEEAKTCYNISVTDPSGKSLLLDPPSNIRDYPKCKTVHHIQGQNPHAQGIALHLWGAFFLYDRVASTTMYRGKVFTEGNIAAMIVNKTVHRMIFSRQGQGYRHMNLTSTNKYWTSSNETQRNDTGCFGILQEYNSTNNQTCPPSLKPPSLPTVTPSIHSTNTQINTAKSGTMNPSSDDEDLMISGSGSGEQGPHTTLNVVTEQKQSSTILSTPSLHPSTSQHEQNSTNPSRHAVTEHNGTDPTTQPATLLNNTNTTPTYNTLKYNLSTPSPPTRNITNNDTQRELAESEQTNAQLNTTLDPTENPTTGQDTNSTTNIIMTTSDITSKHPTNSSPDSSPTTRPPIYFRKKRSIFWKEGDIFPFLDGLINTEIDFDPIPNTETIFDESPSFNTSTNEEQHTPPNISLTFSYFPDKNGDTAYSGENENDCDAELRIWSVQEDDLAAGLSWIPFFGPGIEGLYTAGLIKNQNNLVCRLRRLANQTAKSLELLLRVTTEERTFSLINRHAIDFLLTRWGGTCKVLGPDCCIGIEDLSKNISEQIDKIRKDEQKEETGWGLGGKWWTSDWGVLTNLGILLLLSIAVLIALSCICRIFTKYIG
Description: cell-based or functional assay.
The molecule B1 came in with an NT50 of 0.21 µg/mL.

Take B2: the NT50 was found to be 0.07 µg/mL.

Molecule B3 came in with an NT50 of 0.17 µg/mL.

Regarding B4, the NT50 amounted to 0.17 µg/mL.

B5: the NT50 is 0.09 µg/mL.

The molecule B6 returned an NT50 of 0.18 µg/mL.

With B7, the NT50 was determined as 0.24 µg/mL.

In the case of B8, the NT50 was 0.27 µg/mL.

As to B9, the NT50 stood at 0.3 µg/mL.

In turn, B10 displayed an NT50 of 0.45 µg/mL.

On to B11, for which the NT50 was 0.07 µg/mL.

The molecule B12 gave an NT50 of 0.07 µg/mL.

Consider B13, for which the NT50 is 0.06 µg/mL.

Take B14: the NT50 is 0.03 µg/mL.

Molecule B15 showed an NT50 of 0.08 µg/mL.

In the case of B16, the NT50 was found to be 0.04 µg/mL.

The values above are taken from patent US20230235029A1 (INTEGRATED BIOTHERAPEUTICS, published 2023).
